Where two headings read alike, the source gives them in different places.
Assays:
[1] = biological target: T1, Human ROR1 (receptor tyrosine kinase-like orphan receptor 1) (human, UniProt Q01973 30-937); assay: flow cytometry competition, competitor 2 nM Myc-R12 scFv on ROR1/K562 cells (n = 1)
T1 construct: also called hROR1; K562/ROR1
Procedure: (§1) Assays also were performed to assess competition of the clones with the reference antibody (R12 scFv), for binding to ROR1-expressing cells. VH clones were titrated against 2 nM Myc-R12 on ROR1/K562 cells and competition assessed with an anti-Myc-Alexa647 secondary antibody, and the half maximal inhibitory concentration (IC₅₀) determined for respective clones.

[2] = biological target: T1, Human ROR1 (receptor tyrosine …); assay: flow cytometry on ROR1-expressing K562 and CHOK1 cells (n = 1)
[3] = biological target: T1, Human ROR1 (receptor tyrosine …); assay: flow cytometry on ROR1-expressing cells; predicted plateau relative to R12 scFv = 100%
Procedure: (§2) Additionally, percent (%) maximum (max) binding to ROR1-expressing cells and % max competition with the reference antibody (R12 scFv) were calculated. Percent max binding and competition values were calculated based on predicted plateaus (measured by Prism® using four parameter non-linear regression), relative to values for R12 scFv binding and inhibition, respectively, assigned as 100% in each study.

[4] = biological target: T1, Human ROR1 (receptor tyrosine …); assay: competition with Myc-R12 scFv on ROR1/K562 cells; predicted plateau relative to R12 scFv = 100%
Procedure: as §1, §2

[5] = biological target: T1, Human ROR1 (receptor tyrosine …); assay: flow cytometry competition, competitor R12 scFv on ROR1-expressing cells (n = 1)
Procedure: as §1
(§3) Assays also were performed to assess competition (measured as half maximal inhibitory concentration (IC₅₀)) of the clones with the R12 scFv reference antibody for binding to ROR1-expressing cells, as described in Example 1. Percent (%) max ROR1 and % max competition, as compared to the R12 scFv reference antibody, were determined as described in Example 1.

[6] = biological target: T1, Human ROR1 (receptor tyrosine …); assay: flow cytometry on ROR1-expressing K562 and CHOK1 cells (n = 1); remark: listed apart in the source
[7] = biological target: T1, Human ROR1 (receptor tyrosine …); assay: flow cytometry on ROR1-expressing cells; predicted plateau relative to R12 scFv = 100%; remark: listed apart in the source
Procedure: as §2, §3

[8] = biological target: T1, Human ROR1 (receptor tyrosine …); assay: competition with R12 scFv on ROR1-expressing cells; predicted plateau relative to R12 scFv = 100%
Procedure: as §2, §3

[9] = biological target: T2, Mouse ROR1 (mouse, UniProt Q9Z139 30-937); assay: inferred from IFN-gamma release of CAR T cells on K562/mouse ROR1 cells
T2 construct: also called mROR1; K562/mouse ROR1
Procedure: Cytokine release was assessed following incubation of the CAR-expressing cells with either K562/human ROR1 (hROR1) or K562/mouse ROR1 (mROR1) antigen-expressing cells. Transduced CD8+ T cells were co-cultured with antigen-expressing cells at a single effector to target (E:T). The co-cultured cells were incubated for about 24 hours, and then supernatants were collected for measurement of IFN-γ using a cytokine immunoassay.

T1 sequence (Q01973 30-937): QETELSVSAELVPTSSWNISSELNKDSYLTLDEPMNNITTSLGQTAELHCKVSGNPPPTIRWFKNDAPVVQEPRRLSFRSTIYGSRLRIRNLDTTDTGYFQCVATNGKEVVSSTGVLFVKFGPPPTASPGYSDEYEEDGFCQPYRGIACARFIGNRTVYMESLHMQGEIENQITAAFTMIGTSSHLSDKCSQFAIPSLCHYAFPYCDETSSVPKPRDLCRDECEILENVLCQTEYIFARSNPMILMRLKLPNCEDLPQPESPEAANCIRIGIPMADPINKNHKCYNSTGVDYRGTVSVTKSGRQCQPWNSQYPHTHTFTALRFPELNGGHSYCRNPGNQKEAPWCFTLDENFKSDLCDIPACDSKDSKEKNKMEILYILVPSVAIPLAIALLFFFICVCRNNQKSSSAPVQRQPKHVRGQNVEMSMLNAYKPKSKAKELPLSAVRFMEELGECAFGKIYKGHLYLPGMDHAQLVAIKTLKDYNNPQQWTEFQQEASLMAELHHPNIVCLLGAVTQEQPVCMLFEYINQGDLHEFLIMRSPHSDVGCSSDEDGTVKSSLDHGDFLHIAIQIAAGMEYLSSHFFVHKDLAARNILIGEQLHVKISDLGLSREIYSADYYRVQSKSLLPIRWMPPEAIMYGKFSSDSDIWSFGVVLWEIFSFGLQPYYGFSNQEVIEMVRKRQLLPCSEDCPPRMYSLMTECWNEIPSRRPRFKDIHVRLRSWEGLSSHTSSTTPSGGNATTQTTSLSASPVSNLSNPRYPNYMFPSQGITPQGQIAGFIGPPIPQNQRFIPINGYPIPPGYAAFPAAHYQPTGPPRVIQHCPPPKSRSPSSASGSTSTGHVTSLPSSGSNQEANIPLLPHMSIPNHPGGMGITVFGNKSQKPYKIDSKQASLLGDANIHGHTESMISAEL
T2 sequence (Q9Z139 30-937): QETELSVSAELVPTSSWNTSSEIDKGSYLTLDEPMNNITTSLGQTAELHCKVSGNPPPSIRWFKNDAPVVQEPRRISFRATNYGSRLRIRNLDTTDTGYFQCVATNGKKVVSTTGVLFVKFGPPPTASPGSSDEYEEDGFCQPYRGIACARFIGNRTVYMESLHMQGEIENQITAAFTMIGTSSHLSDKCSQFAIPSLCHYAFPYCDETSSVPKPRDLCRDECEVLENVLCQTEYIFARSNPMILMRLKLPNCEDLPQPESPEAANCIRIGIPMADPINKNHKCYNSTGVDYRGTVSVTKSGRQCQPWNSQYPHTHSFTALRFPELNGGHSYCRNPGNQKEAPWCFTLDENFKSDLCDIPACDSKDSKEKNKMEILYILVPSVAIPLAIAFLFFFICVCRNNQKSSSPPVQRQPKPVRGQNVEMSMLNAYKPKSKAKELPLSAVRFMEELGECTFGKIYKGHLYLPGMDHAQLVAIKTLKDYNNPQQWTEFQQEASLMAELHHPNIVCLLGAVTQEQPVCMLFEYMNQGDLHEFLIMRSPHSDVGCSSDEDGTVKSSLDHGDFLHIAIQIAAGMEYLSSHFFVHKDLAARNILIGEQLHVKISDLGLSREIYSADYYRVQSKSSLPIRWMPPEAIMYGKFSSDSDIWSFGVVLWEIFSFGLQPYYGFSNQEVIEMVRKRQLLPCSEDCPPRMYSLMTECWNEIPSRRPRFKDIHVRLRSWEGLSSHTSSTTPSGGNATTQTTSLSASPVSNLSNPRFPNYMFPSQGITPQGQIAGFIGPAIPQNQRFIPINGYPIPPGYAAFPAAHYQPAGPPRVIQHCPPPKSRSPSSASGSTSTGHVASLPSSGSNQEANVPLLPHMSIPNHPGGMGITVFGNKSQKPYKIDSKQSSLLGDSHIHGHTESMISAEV

B1: Clone V312 (VHH)
VHH: EVQLVESGGGLVKPRGSLRLSCAASGFTFSNAWMSWVRQAPGKGLEWVGRIKSKTDGGTTDYAAPVKGRFTISRDDSKNTLYLQMNSLKTEDTAVYYCARTSRGRFLEWLLFDYWGQGTLVTVSS
notes: human VH-only single-domain antibody, no VL
[1]
  IC50: 5.6 nM
[2]
  EC50: 23.7 nM
[3]
  % Max Binding: 29%
[4]
  % Max Competition: 19%

B2: Clone 366 scFv (scFv)
scFv: EVQLVESGGGLVQPGRSLRLSCTASGFTFGDYAMSWVRQAPGKGLEWVSSISGSGRSTDHADYVKGRFTISRDNSKNTVYLQMNRLRAEDTAVYYCAKVSNYEYYFDYWAQGTLVTVSSQSVLTQPPSVPGTPGQRVTITCSGSRFNIGSNTVNWYQQLPGTAPKLLIYSNNQRPSGVPDRFSGSKSGTSASLAISGLQSEDEADYYCAAWDDSLNGYVFGTGTKLTVL
notes: Printed without a linker
[5]
  IC50: 53.9 nM
[6]
  EC50: 10 nM
[7]
  % Max Binding: 104%
[8]
  % Max Competition: 71%

B3: Clone V397 (VHH)
VHH: QITLKESGGGLVQPGGSLRLSCAASGFTFSNAWMSWVRQAPGKGLEWVGRIKSKTDGGTTDYAAPLKGRFTISRDDSKNTLYLQMNSLKTEDTAVYYCARAKGLWFGESYYFDYWGQGTLVTVSS
notes: as for B1
[1]
  IC50: 25.2 nM
[2]
  EC50: 49.7 nM
[3]
  % Max Binding: 18%
[4]
  % Max Competition: 18%

B4: CAR containing Clone 298 scFv (VH-VL) (other)
chain: EVQLVESGGGLVQPGRSLRLSCTASGFTFGDYAMSWVRQAPGKGLEWVSSISGSGRSTDHADYVKGRFTISRDNSKNTVYLQMNRLRAEDTAVYYCAKVSNYEYYFDYWAQGTLVTVSSGGGGSGGGGSGGGGSEIVLTQSPSVSVAPGQTARITCGGSNIGSESVNWYQWKSGQVPVLVVSDTTDRPSGIPGRFTGTRSGTTATLTISGVEAGDEADYHCQVWDDTGDHPVFGGGTKLTVL
notes: Chimeric antigen receptor expressed on primary human CD8+ T cells; tEGFR marker is split off by T2A; also called 298 CAR; not shown: Ig-derived hinge only spacer, human CD28-derived transmembrane domain, human 4-1BB-derived intracellular signaling domai
[9]
  binding result: binds

B5: Clone 298 scFv (scFv)
scFv: EVQLVESGGGLVQPGRSLRLSCTASGFTFGDYAMSWVRQAPGKGLEWVSSISGSGRSTDHADYVKGRFTISRDNSKNTVYLQMNRLRAEDTAVYYCAKVSNYEYYFDYWAQGTLVTVSSGGGGSGGGGSGGGGSEIVLTQSPSVSVAPGQTARITCGGSNIGSESVNWYQWKSGQVPVLVVSDTTDRPSGIPGRFTGTRSGTTATLTISGVEAGDEADYHCQVWDDTGDHPVFGGGTKLTVL
[5]
  IC50: 41.3 nM
[6]
  EC50: 5.9 nM
[7]
  % Max Binding: 96%
[8]
  % Max Competition: 88%

B6: Clone V331 (VHH)
VHH: QVQLQQWGAGLLKPSETLSLTCAVYGGSFSGYYWSWIRQPPGKGLEWIGKINHSGSTNYNPSLKSRVTISVDTSKNQFSLKLSSVTAADTAVYYCARGQIAAHVWGWFDPWGQGTLVTVSS
notes: as for B1
[1]
  IC50: 32.4 nM
[2]
  EC50: 18.8 nM
[3]
  % Max Binding: 70%
[4]
  % Max Competition: 31%

B7: Clone V128 (VHH)
VHH: EVQLLESGGGVVQPGGSLRLSCAASGFTFDTFWMSWVRQAPGKGLEWVGRIKSKTDGGTTDYAAPVKGRFTISRDDSKNTLYLQMNSLKTEDTAVYYCARDFGRWSYYFDYWSQGTLVTVSS
notes: as for B1
[1]
  IC50: > 200 nM

B8: Clone V181 (VHH)
VHH: QITLKESGGGLVKPGRSLRLSCTASGFTFGDYAMSWFRQAPGKGLEWVGFIRSKAYGGTTEYAASVKGRFTISRDDSKSIAYLQMNSLKTEDTAVYYCAKDFEVREAHLSYFDYWGQGTLVTVSS
notes: as for B1
[1]
  IC50: > 200 nM
[4]
  % Max Competition: 76%

B9: Clone V420 (VHH)
VHH: QVQLVESGGGLVQPGGSLRLSCAASGFTFSSYWMSWVRQAPGKGLEWVANIKQDGSEKYYVDSVKGRFTISRDNAKNSLYLQMNSLRAEDTAVYYCARVNGGEYYFDYWGQGTLVTVSS
notes: as for B1
[1]
  IC50: 71.5 nM
[2]
  EC50: 8 nM
[3]
  % Max Binding: 74%
[4]
  % Max Competition: 58%

B10: Clone V282 (VHH)
VHH: EVQLVESGGGLVQPGGSLRLSCAASGFTFSSYWMSWVRQAPGKGLEWVANIKQDGSEKYYVDSVKGRFTISRDNAKNSLYLQMNSLRAEDTAVYYCARVRGSEYYFDYWGQGTLVTVSS
notes: as for B1
[1]
  IC50: 94.3 nM
[2]
  EC50: 13.1 nM
[3]
  % Max Binding: 64%
[4]
  % Max Competition: 48%

B11: CAR containing Clone 83B scFv (VH-VL) (other)
chain: QVQLVQSGAEVKKPGASVKVSCKASGYTFTSYYMHWVRQAPGQGLEWMGIINPNGGSTSYAQKFQGRVTMTRDTSTSTVYMELSSLRSEDTAVYYCARDSSYDAFDIWGQGTMVTVSSGGGGSGGGGSGGGGSAIQLTQSPSTLSASVGDRVTITCQASQDISNYLNWYQQKPGKAPKLLINDASYLETGVPSRFSGSGSGTDFTLTISSLQPEDIATYYCQQYESLPYTFGQGTKLEIK
notes: Chimeric antigen receptor expressed on primary human CD8+ T cells; tEGFR marker is split off by T2A; also called 83B CAR; not shown: Ig-derived hinge only spacer, human CD28-derived transmembrane domain, human 4-1BB-derived intracellular signaling domai
[9]
  binding result: binds

B12: Clone 83B scFv (scFv)
scFv: QVQLVQSGAEVKKPGASVKVSCKASGYTFTSYYMHWVRQAPGQGLEWMGIINPNGGSTSYAQKFQGRVTMTRDTSTSTVYMELSSLRSEDTAVYYCARDSSYDAFDIWGQGTMVTVSSGGGGSGGGGSGGGGSAIQLTQSPSTLSASVGDRVTITCQASQDISNYLNWYQQKPGKAPKLLINDASYLETGVPSRFSGSGSGTDFTLTISSLQPEDIATYYCQQYESLPYTFGQGTKLEIK
notes: De-glycosylation variant of clone 83 (S to N at VH position 53, Kabat)
[5]
  IC50: 15 nM
[6]
  EC50: 6.4 nM
[7]
  % Max Binding: 140%
[8]
  % Max Competition: 103%

B13: Clone 305 scFv (scFv)
scFv: EVQLVESGGGLVQPGRSLRLSCTASGFTFGDYAMSWVRQAPGKGLEWVSSISGSGRSTDHADYVKGRFTISRDNSKNTVYLQMNRLRAEDTAVYYCAKVSNYEYYFDYWAQGTLVTVSSQSVLTQPPSVSVAPGQTARITCGGNNIGSTSVHWFQQKPGQAPVLVVYDDSDRPSGIPERFSGSNSGNTATLTISRVEAGDEADYYCQVWDNDSDHRVFGGGTKLTVL
[5]
  IC50: 62.5 nM
[6]
  EC50: 5.1 nM
[7]
  % Max Binding: 86%
[8]
  % Max Competition: 97%

B14: Clone V278 (VHH)
VHH: QITLKESGGGLVQPGGSLRLSCAASGFTFSSYAMSWVRQAPGKGLEWVSAISGSGGSTYYADSVKGRFTISRDNSKNTLYLQMNSLRAEDTAVYYCAKERSRWGDNWFDPWGQGTLVTVSS
notes: as for B1
[2]
  EC50: 31.5 nM
[3]
  % Max Binding: 22%

B15: Clone V163 (VHH)
VHH: QVQLVESGGGLVKPGGSLRLSCAASGFTFSNAWMSWVRQAPGKGLEWVGRIKSKTDGGTTDYAAPVKGRFTISRDDSKNTLYLQMNSLKTEDTAVYYCARQGDSSSWYVEVYYFDYWGQGTLVTVSS
notes: as for B1
[1]
  IC50: 154 nM
[2]
  EC50: 92.9 nM
[3]
  % Max Binding: 122%
[4]
  % Max Competition: 58%

B16: CAR containing Clone 48 scFv (VH-VL) (other)
chain: QVTLKESGGGLVKPGGSLRLSCAASGFTFSNAWMSWVRQAPGKGLEWVGRIKSKTDGGTTDYAAPVKGRFTISRDDSKNTLYLQMNSLKTEDTAVYYCARDFGRWSYYFDYWSQGTLVTVSSGGGGSGGGGSGGGGSQSVLTQPSSVSGTPGQRVTISCSGSSSNIGSNYVYWYQQLPGTAPKLLIYRNNQRPSGVPDRFSGSKSGTSASLAISGLRSEDEADYYCAAWDDSLSGVVFGGGTKLTVL
notes: Chimeric antigen receptor expressed on primary human CD8+ T cells; tEGFR marker is split off by T2A; also called 48 CAR; not shown: Ig-derived hinge only spacer, human CD28-derived transmembrane domain, human 4-1BB-derived intracellular signaling domai
[9]
  binding result: binds

B17: Clone 350 scFv (scFv)
scFv: EVQLVESGGGLVQPGRSLRLSCTASGFTFGDYAMSWVRQAPGKGLEWVSSISGSGRSTDHADYVKGRFTISRDNSKNTVYLQMNRLRAEDTAVYYCAKVSNYEYYFDYWAQGTLVTVSSQPVLTQPHSVSESPGKTVTISCTRSSGSIASNYVQWYQQRPGSAPTTVIYEDNQRPSGVPDRFSGSIDSSSNSASLTISGLKTEDEADYYCQSYDSSNHVFGTGTKLTVL
[5]
  IC50: 49.1 nM
[6]
  EC50: 22.9 nM
[7]
  % Max Binding: 137%
[8]
  % Max Competition: 80%

B18: CAR containing Clone V70 VH-only antigen-binding domain (other)
chain: QVQLLESGGGLVQPGRSLRLSCTASGFTFGDYAMSWVRQAPGKGLEWVSSISGSGRSTDHADYVKGRFTISRDNSKNTVYLQMNRLRAEDTAVYYCAKVSNYEYYFDYWAQGTLVTVSS
notes: Chimeric antigen receptor expressed on primary human CD8+ T cells; tEGFR marker is split off by T2A; also called V70 CAR; not shown: Ig-derived hinge only spacer, human CD28-derived transmembrane domain, human 4-1BB-derived intracellular signaling domai
[9]
  binding result: binds

Source: patent US20160208018A1 (JUNO THERAPEUTICS, published 2016)
